From IntAct's records for PubMed 24525234 come the findings set out here.

To fix the notation:
B1: Rho guanine nucleotide exchange factor 2 (Mus musculus), Q60875 (parent)
chain: MSRIESLTRARIDRSKEQATKTREKEKMKEAKDARYTNGHLFTTISVSGMTMCYACNKSITAKEALICPTCNVTIHNRCKDTLANCTKVKQKQQKAALLRNNTALQSVSLRSKTTTRERPTSAIYPSDSFRQSLLGSRRGLSSLSLAKSVSTTNIAGHFNDESPLGLRQILSQSTDSLNMRNRTLSVESLIDEGVEVFYNELMSDFEMDEKDFEADSWSLAVDSSFLQQHKKEVMKKQDVIYELIQTELHHVRTLKIMTRLFRTGMLEELQMEPEVVQGLFPCVDELSDIHTRFLNQLLERRRQALCPGSTRNFVIHRLGDLLISQFSGSNAEQMRKTYSEFCSRHTKALKLYKELYARDKRFQQFIRKMTRSAVLKRHGVQECILLVTQRITKYPVLINRILQNSHGVEEEYQDLASALGLVKELLSNVDQDVHELEKEARLQEIYNRMDPRAQTPVPGKGPFGRDELLRRKLIHEGCLLWKTATGRFKDVLLLLMTDVLVFLQEKDQKYIFTSLDKPSVVSLQNLIVRDIANQAKGMFLISSGPPEMYEVHAASRDDRTTWIRVIQQSVRLCPSREDFPLIETEDKAYLRRIKTKLQQKNQALVELLQKNVELFAEMVHFQALKAGFVGMPPPALPRGLFRLESFESLRGERLLKDALREVEGLKDLLLGPCVDLPMTSREPALPLDSDSGSCPGVTANGEARTFNGSIELCRADSDSSQKDRNGNQLRSPQEEVLQPLINLYGLLHGLQAVVVQQERLMEALFPEGPERWEKLSRANSRDGEAGRAAVASVTPEKQATELALLQRQHTLLQEELRRCQRLGEERATEAGSLEARLRESEQARALLEREAEEIRRQLAALGQNEPLPAEAPWARRPLDPRRRSLPAGDALYLSFNPPQPSRGHDRLDLPVTVRSLHRPFDDREAQELGSPEDRLQDSSDPDTGSEEEVSSRLSPPHSPRDFTRMQDIPEETESRDGEPTASES

The assay covers variants of B1. The conditions noted are these: with rhoa_human RHOA.
Turning to E243K, the “effect of a mutation on the interaction” value is “disrupting interaction”.
